± gives the uncertainty stated by the source.

B1: Steroid hormone receptor ERR2, residues 100 to 176; numbered along this chain, O95718 (parent)
chain: KRLCLVCGDIASGYHYGVASCEACKAFFKRTIQGNIEYSCPATNECEITKRRRKSCQACRFMKCLKVGMLKEGVRLD

The variants in the data set derive from B1. In words: abundance fitness (aPCA) (normalised: wild type 0, dead -1); higher = more abundant; growth selection in yeast, the domain comes from the species named. To be noted: Homo sapiens.
Take KRNCLVCGDIASGYHYGVASCEACKAFFKRTIQGNIEYSCPATNECEITKRRRKSCQACRFMKCLKVGMLKEGVRLD [L3N]: the abundance fitness amounted to 0.179 ± 0.07.
Take KRICLVCGDIASGYHYGVASCEACKAFFKRTIQGNIEYSCPATNECEITKRRRKSCQACRFMKCLKVGMLKEGVRLD [L3I]: the abundance fitness stood at 0.319 ± 0.087.
The figure for KRPCLVCGDIASGYHYGVASCEACKAFFKRTIQGNIEYSCPATNECEITKRRRKSCQACRFMKCLKVGMLKEGVRLD [L3P] is -0.372 ± 0.083; for KRHCLVCGDIASGYHYGVASCEACKAFFKRTIQGNIEYSCPATNECEITKRRRKSCQACRFMKCLKVGMLKEGVRLD [L3H] it is 0.133 ± 0.072.
The figure for KRECLVCGDIASGYHYGVASCEACKAFFKRTIQGNIEYSCPATNECEITKRRRKSCQACRFMKCLKVGMLKEGVRLD [L3E] is -0.048 ± 0.052; for KRACLVCGDIASGYHYGVASCEACKAFFKRTIQGNIEYSCPATNECEITKRRRKSCQACRFMKCLKVGMLKEGVRLD [L3A] it is -0.047 ± 0.048; for KRCCLVCGDIASGYHYGVASCEACKAFFKRTIQGNIEYSCPATNECEITKRRRKSCQACRFMKCLKVGMLKEGVRLD [L3C] it is -0.373 ± 0.11.
Turning to KRFCLVCGDIASGYHYGVASCEACKAFFKRTIQGNIEYSCPATNECEITKRRRKSCQACRFMKCLKVGMLKEGVRLD [L3F], the abundance fitness stood at 0.284 ± 0.077.
As to KRMCLVCGDIASGYHYGVASCEACKAFFKRTIQGNIEYSCPATNECEITKRRRKSCQACRFMKCLKVGMLKEGVRLD [L3M], the abundance fitness was -0.1 ± 0.073.
The figure for KRGCLVCGDIASGYHYGVASCEACKAFFKRTIQGNIEYSCPATNECEITKRRRKSCQACRFMKCLKVGMLKEGVRLD [L3G] is -0.118 ± 0.041.
For the variant KKLCLVCGDIASGYHYGVASCEACKAFFKRTIQGNIEYSCPATNECEITKRRRKSCQACRFMKCLKVGMLKEGVRLD [R2K], the abundance fitness is -0.066 ± 0.074.
For KQLCLVCGDIASGYHYGVASCEACKAFFKRTIQGNIEYSCPATNECEITKRRRKSCQACRFMKCLKVGMLKEGVRLD [R2Q] the value was -0.367 ± 0.096; for KDLCLVCGDIASGYHYGVASCEACKAFFKRTIQGNIEYSCPATNECEITKRRRKSCQACRFMKCLKVGMLKEGVRLD [R2D], 0.125 ± 0.1; for KELCLVCGDIASGYHYGVASCEACKAFFKRTIQGNIEYSCPATNECEITKRRRKSCQACRFMKCLKVGMLKEGVRLD [R2E], -0.105 ± 0.071.
Turning to KSLCLVCGDIASGYHYGVASCEACKAFFKRTIQGNIEYSCPATNECEITKRRRKSCQACRFMKCLKVGMLKEGVRLD [R2S], the abundance fitness was -0.187 ± 0.066.
Regarding KALCLVCGDIASGYHYGVASCEACKAFFKRTIQGNIEYSCPATNECEITKRRRKSCQACRFMKCLKVGMLKEGVRLD [R2A], the abundance fitness is -0.226 ± 0.067.
In the case of KNLCLVCGDIASGYHYGVASCEACKAFFKRTIQGNIEYSCPATNECEITKRRRKSCQACRFMKCLKVGMLKEGVRLD [R2N], the abundance fitness was determined as 0.04 ± 0.1.
In the case of KGLCLVCGDIASGYHYGVASCEACKAFFKRTIQGNIEYSCPATNECEITKRRRKSCQACRFMKCLKVGMLKEGVRLD [R2G], the abundance fitness is -0.176 ± 0.058.
For KFLCLVCGDIASGYHYGVASCEACKAFFKRTIQGNIEYSCPATNECEITKRRRKSCQACRFMKCLKVGMLKEGVRLD [R2F] the value was 0.16 ± 0.13.
For KMLCLVCGDIASGYHYGVASCEACKAFFKRTIQGNIEYSCPATNECEITKRRRKSCQACRFMKCLKVGMLKEGVRLD [R2M] the value was -0.074 ± 0.067; for KTLCLVCGDIASGYHYGVASCEACKAFFKRTIQGNIEYSCPATNECEITKRRRKSCQACRFMKCLKVGMLKEGVRLD [R2T], -0.263 ± 0.07.
For KLLCLVCGDIASGYHYGVASCEACKAFFKRTIQGNIEYSCPATNECEITKRRRKSCQACRFMKCLKVGMLKEGVRLD [R2L], the abundance fitness is -0.136 ± 0.056.
For KYLCLVCGDIASGYHYGVASCEACKAFFKRTIQGNIEYSCPATNECEITKRRRKSCQACRFMKCLKVGMLKEGVRLD [R2Y], the abundance fitness stood at 0.014 ± 0.11.
The figure for KHLCLVCGDIASGYHYGVASCEACKAFFKRTIQGNIEYSCPATNECEITKRRRKSCQACRFMKCLKVGMLKEGVRLD [R2H] is 0.072 ± 0.11.
Regarding KWLCLVCGDIASGYHYGVASCEACKAFFKRTIQGNIEYSCPATNECEITKRRRKSCQACRFMKCLKVGMLKEGVRLD [R2W], the abundance fitness is -0.338 ± 0.082.
The figure for KCLCLVCGDIASGYHYGVASCEACKAFFKRTIQGNIEYSCPATNECEITKRRRKSCQACRFMKCLKVGMLKEGVRLD [R2C] is -0.111 ± 0.11.
Consider KPLCLVCGDIASGYHYGVASCEACKAFFKRTIQGNIEYSCPATNECEITKRRRKSCQACRFMKCLKVGMLKEGVRLD [R2P], for which the abundance fitness was -0.502 ± 0.19.
The figure for KVLCLVCGDIASGYHYGVASCEACKAFFKRTIQGNIEYSCPATNECEITKRRRKSCQACRFMKCLKVGMLKEGVRLD [R2V] is -0.228 ± 0.066; for HRLCLVCGDIASGYHYGVASCEACKAFFKRTIQGNIEYSCPATNECEITKRRRKSCQACRFMKCLKVGMLKEGVRLD [K1H] it is -0.525 ± 0.29.
Consider MRLCLVCGDIASGYHYGVASCEACKAFFKRTIQGNIEYSCPATNECEITKRRRKSCQACRFMKCLKVGMLKEGVRLD [K1M], for which the abundance fitness was found to be 0.013 ± 0.074.
For RRLCLVCGDIASGYHYGVASCEACKAFFKRTIQGNIEYSCPATNECEITKRRRKSCQACRFMKCLKVGMLKEGVRLD [K1R] the value was -0.286 ± 0.074; for TRLCLVCGDIASGYHYGVASCEACKAFFKRTIQGNIEYSCPATNECEITKRRRKSCQACRFMKCLKVGMLKEGVRLD [K1T], -0.177 ± 0.08.
The figure for ERLCLVCGDIASGYHYGVASCEACKAFFKRTIQGNIEYSCPATNECEITKRRRKSCQACRFMKCLKVGMLKEGVRLD [K1E] is -0.128 ± 0.07; for QRLCLVCGDIASGYHYGVASCEACKAFFKRTIQGNIEYSCPATNECEITKRRRKSCQACRFMKCLKVGMLKEGVRLD [K1Q] it is -0.346 ± 0.14; for GRLCLVCGDIASGYHYGVASCEACKAFFKRTIQGNIEYSCPATNECEITKRRRKSCQACRFMKCLKVGMLKEGVRLD [K1G] it is -0.386 ± 0.071.
Turning to LRLCLVCGDIASGYHYGVASCEACKAFFKRTIQGNIEYSCPATNECEITKRRRKSCQACRFMKCLKVGMLKEGVRLD [K1L], the abundance fitness is -0.67 ± 0.18.
With SRLCLVCGDIASGYHYGVASCEACKAFFKRTIQGNIEYSCPATNECEITKRRRKSCQACRFMKCLKVGMLKEGVRLD [K1S], the abundance fitness was -0.295 ± 0.1.
For FRLCLVCGDIASGYHYGVASCEACKAFFKRTIQGNIEYSCPATNECEITKRRRKSCQACRFMKCLKVGMLKEGVRLD [K1F] the value was -0.641 ± 0.23; for DRLCLVCGDIASGYHYGVASCEACKAFFKRTIQGNIEYSCPATNECEITKRRRKSCQACRFMKCLKVGMLKEGVRLD [K1D], -0.089 ± 0.092.
The figure for IRLCLVCGDIASGYHYGVASCEACKAFFKRTIQGNIEYSCPATNECEITKRRRKSCQACRFMKCLKVGMLKEGVRLD [K1I] is -0.45 ± 0.27; for WRLCLVCGDIASGYHYGVASCEACKAFFKRTIQGNIEYSCPATNECEITKRRRKSCQACRFMKCLKVGMLKEGVRLD [K1W] it is -0.387 ± 0.099; for VRLCLVCGDIASGYHYGVASCEACKAFFKRTIQGNIEYSCPATNECEITKRRRKSCQACRFMKCLKVGMLKEGVRLD [K1V] it is -0.334 ± 0.087.
The figure for CRLCLVCGDIASGYHYGVASCEACKAFFKRTIQGNIEYSCPATNECEITKRRRKSCQACRFMKCLKVGMLKEGVRLD [K1C] is -0.432 ± 0.16.
For the variant NRLCLVCGDIASGYHYGVASCEACKAFFKRTIQGNIEYSCPATNECEITKRRRKSCQACRFMKCLKVGMLKEGVRLD [K1N], the abundance fitness turned out to be 0.031 ± 0.12.

Source of the values: the Human Domainome abundance scans (Beltran et al. 2025).
